These are literature values, as cited in publication PMC1976947.

This data set deals with G-CSF receptor (Mus musculus) (UniProt P40223).
Sequence of UniProt P40223 (P40223 26-837): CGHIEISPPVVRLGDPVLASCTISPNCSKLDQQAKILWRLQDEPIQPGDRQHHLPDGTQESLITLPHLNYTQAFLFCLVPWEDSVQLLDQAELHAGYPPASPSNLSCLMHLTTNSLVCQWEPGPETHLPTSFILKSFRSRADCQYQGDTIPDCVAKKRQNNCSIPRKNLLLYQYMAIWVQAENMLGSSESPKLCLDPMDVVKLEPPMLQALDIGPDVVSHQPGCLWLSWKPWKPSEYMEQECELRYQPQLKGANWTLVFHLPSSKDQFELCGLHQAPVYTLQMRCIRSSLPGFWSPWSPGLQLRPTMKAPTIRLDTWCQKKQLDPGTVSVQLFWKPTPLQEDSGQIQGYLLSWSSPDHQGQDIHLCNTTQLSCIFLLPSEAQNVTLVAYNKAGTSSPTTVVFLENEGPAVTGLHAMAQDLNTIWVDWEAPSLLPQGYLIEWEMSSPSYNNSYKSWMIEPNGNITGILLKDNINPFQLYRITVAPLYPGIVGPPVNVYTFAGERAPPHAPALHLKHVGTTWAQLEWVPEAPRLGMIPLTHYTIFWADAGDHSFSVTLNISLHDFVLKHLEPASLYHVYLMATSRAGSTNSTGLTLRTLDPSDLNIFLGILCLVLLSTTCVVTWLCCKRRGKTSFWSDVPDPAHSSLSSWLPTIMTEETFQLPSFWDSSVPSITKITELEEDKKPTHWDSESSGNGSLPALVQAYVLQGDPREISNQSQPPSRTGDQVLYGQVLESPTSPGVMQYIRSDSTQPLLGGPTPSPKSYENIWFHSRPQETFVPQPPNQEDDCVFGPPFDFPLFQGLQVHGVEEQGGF

Sequence of G-CSF (P09919 31-207): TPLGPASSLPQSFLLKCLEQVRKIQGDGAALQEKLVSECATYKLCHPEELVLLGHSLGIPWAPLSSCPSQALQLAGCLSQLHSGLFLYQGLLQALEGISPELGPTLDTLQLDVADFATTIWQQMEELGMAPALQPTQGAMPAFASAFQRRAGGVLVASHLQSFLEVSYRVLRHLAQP

Turning to G-CSF (from UniProt P09919), the Kd – broadly, the constant that tells how readily two partners part at equilibrium – was 70 pM.
